Experiments:
[1] = target: T1, human CD200R1 expressed on cells (Jurkat-CD200R1, U937-CD200R1, HH cells) (human, UniProt Q8TD46 25-348); experiment: flow cytometry on Jurkat-CD200R1 and HH cells, 500 nM antibody in IgG1 form
T1 construct: whole, on cells; also called HH (CRL-2105); cell surface-expressed CD200R1
T1 sequence (looked up): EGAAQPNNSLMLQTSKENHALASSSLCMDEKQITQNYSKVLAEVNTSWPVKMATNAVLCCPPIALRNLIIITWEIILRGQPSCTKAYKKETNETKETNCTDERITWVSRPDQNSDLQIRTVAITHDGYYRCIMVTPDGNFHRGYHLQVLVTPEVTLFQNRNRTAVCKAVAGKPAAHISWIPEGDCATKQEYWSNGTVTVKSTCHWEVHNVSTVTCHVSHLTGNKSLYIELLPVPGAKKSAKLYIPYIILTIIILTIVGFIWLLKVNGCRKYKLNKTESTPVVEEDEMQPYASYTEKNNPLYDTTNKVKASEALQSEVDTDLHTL
Method in brief: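 Cells at 1×10⁵ per well incubated with antibody 1 h at 4 °C, then Alexa-647 anti-human IgG (H+L) secondary for 30 min at 4 °C. After two washes, binding read by flow cytometry.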

Hybrid CD200R1 MH = target: T2, Hybrid CD200R1 MH (mouse;human, UniProt Q9ES57;Q8TD46); experiment: ELISA, plate-bound MH hybrid (1 ug/mL), antibody 0.0192-300 nM, O.D 450 nm; panel 'P001 MH domain-2)'
T2 construct: single domain; mouse D1 over human D2; also called MH hybrid domain; P001 MH domain
T2 sequence (hybrid extracellular part, looked up): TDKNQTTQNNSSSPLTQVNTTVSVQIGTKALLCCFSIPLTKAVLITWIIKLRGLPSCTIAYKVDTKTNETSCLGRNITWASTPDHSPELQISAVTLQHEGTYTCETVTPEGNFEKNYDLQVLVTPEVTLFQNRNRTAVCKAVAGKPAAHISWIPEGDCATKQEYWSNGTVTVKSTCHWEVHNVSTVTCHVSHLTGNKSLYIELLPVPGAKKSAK
Method: Recombinant proteins were produced from the extracellular Ig-like V-type domain and Ig-like C2-type domain of human CD200R1, each designed as human-mouse (HM hybrid domain) and mouse-human (MH hybrid domain) recombinant proteins. A 96-well plate was coated at a concentration of 1 μg/mL with each protein at 4° C. for 16 hours and blocked with 3% skim milk. […] After color development with TMB substrate solution (Thermo Scientific, 34029, 1-Step™ Ultra TMB-ELISA Substrate Solution), the color reaction was stopped with a stop solution (Invitrogen, SS04, ELISA Stop Solution), and the absorbance was measured at an O.D. of 450 nm.

[2] = target: T3, monkey CD200R1 (ELISA antigen of Example 14) (monkey); experiment: ELISA on monkey CD200R1, normalized absorbance at 450 nm, 0.0192-300 nM; panel 'Cyno CD200R1'
T3 chain: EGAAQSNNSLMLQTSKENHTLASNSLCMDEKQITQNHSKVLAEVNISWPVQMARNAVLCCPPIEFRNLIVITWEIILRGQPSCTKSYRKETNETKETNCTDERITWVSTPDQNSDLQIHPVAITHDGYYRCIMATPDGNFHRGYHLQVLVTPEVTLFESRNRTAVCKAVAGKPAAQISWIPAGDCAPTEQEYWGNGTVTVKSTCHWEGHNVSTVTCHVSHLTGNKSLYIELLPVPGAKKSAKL

[3] = target: T1, human CD200R1 expressed on cells …; experiment: cell-based or functional assay
[4] = target: T4, recombinant human CD200R1 Fc chimera protein, CF (R&D systems, 3414-CD) (human, UniProt Q8TD46 27-266); experiment: ELISA, plate-bound human CD200R1-Fc (2 ug/mL), IgG 0.0192-300 nM, anti-human IgG F(ab')2-HRP, OD 450 nm; panel 'human CD200R1'
T4 construct: Bought; also called CD200R1-Fc protein; human CD200R1 Fc protein; Fc part of the bought chimera not given
T4 sequence (looked up): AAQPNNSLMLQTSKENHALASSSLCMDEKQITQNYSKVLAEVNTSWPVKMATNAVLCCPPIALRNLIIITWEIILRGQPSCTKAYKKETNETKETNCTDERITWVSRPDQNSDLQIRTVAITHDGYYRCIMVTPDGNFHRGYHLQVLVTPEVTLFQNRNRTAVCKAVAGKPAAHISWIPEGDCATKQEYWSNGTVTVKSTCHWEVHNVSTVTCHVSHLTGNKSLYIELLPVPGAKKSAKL
Method: 96-well plates were coated with human CD200R1 (R&D systems, 3414-CD) and mouse CD200R1 protein (R&D systems, 2554-CD) at a concentration of 2 μg/mL at 4° C. for 16 hours and then were blocked with 3% skim milk.
Color was developed with a TMB substrate solution (Thermo Scientific, 34029, 1-Step™ TMB-ELISA Ultra Substrate Solution). The color reaction was stopped with stop solution (Invitrogen, SS04, ELISA Stop Solution). The absorbance was measured at an optical density of 450 nm.

- EC50 (read off the curve) [2]: ~5 nM
B1: P001009 (IgG) (antibody, V domains shown)
VH: EVQLLESGGGLVQPGGSLRLSCAASGFTFSSYDMSWVRQAPGKGLEWVSWISHGGGSIYYADSVKGRFTISRDNSKNTLYLQMNSLRAEDTAVYYCARDAPAYSAPLFDYWGQGTLVTVSS
VL: QSVLTQPPSASGTPGQRVTISCSGSSSNIGNNAVNWYQQLPGTAPKLLIYYDSNRPSGVPDRFSGSKSGTSASLAISGLRSEDEADYYCAAWDDSLSGYVFGGGTKLTVL
notes: also called P001009 WT; P001009 wt
- MFI normalized to P001017 (chimeric OX108), % [1]: > 50%
- binding result (Hybrid CD200R1 MH): no binding (tested: 300 nM)
- EC50 (nM), degree of signal transduction by the Dok2 protein [3]: 1.57 nM
- EC50 (read off the curve) [4]: ~0.5 nM

Source: US20260263521A1 (AIMED BIO, published 2026)
